Positions count from the first letter of the chain named. In names and notes the source's numbering stands.
B1: biotinylated human ISCU wild-type (Δ1-34) (natural protein, UniProt Q9H1K1 35-167, looked up)
chain: YHKKVVDHYENPRNVGSLDKTSKNVGTGLVGAPACGDVMKLQIQVDEKGKIVDARFKTFGCGSAIASSSLATEWVKGKTVEEALTIKNTDIAKELCLPPVKLHCSMLAEDAIKAALADYKLKQEPKKGEAEKK
modifications: biotin (site not stated)
notes: human ISCU, construct Δ1-34 of the 167-aa precursor (133-aa mature protein without the mitochondrial signal peptide); the two conditions are two assays; Measured mass of the apo-protein 14604 Da; also called ISCUWT; WT; source: E. coli BL21 (DE3)-R3-pRARE2, purified (Ni Sepharose, Superdex S75, His-tag removed by TEV)
B2: biotinylated human ISCU M140I (Δ1-34) (natural protein, UniProt Q9H1K1 35-167, looked up)
chain: B1 chain with M106I
modifications: biotin (site not stated)
notes: human ISCU, construct Δ1-34 of the 167-aa precursor, variant M140I; source: E. coli BL21 (DE3)-R3-pRARE2, purified (Ni Sepharose, Superdex S75, His-tag removed by TEV)
B3: biotinylated human ISCU M140V (Δ1-34) (natural protein, UniProt Q9H1K1 35-167, looked up)
chain: B1 chain with M106V
modifications: biotin (site not stated)
notes: human ISCU, construct Δ1-34 of the 167-aa precursor, variant M140V; source: E. coli BL21 (DE3)-R3-pRARE2, purified (Ni Sepharose, Superdex S75, His-tag removed by TEV)
B4: biotinylated human ISCU M140L (Δ1-34) (natural protein, UniProt Q9H1K1 35-167, looked up)
chain: B1 chain with M106L
modifications: biotin (site not stated)
notes: human ISCU, construct Δ1-34 of the 167-aa precursor, variant M140L; source: E. coli BL21 (DE3)-R3-pRARE2, purified (Ni Sepharose, Superdex S75, His-tag removed by TEV)

The binders below were run against T1, NFS1-ISD11-ACP (SDA) complex (human | E. coli, UniProt Q9Y697 56-457; Q9HD34 1-91; P0A6A8 1-78) (assay: BLI; biotinylated ISCU on streptavidin sensors, SDA 10 uM to 1.56 nM in solution; 25 °C; 50 mM HEPES pH 7.5, 200 mM NaCl, 5% glycerol, 2 mM TCEP, 5 mM DTT, 0.5 mg/mL BSA, with 100 uM ZnCl2 (zinc-bound ISCU); Kd from response vs. [NFS1], one site-specific binding fit). Settings: both partners purified.
T1 construct: human cysteine desulfurase NFS1, non-tagged, construct Δ1-55; human ISD11 (LYRM4), His-tagged; E. coli acyl carrier protein (ACP) of the expression host, co-purified with NFS1-ISD11; PLP was added during the purification; also called NFS1-ISD11-ACP desulfurase complex; NFS1-ISD11 complex; source: co-purified with E. coli ACP; copies: + +
T1 sequence (Q9Y697 56-457, chain 1 of 3): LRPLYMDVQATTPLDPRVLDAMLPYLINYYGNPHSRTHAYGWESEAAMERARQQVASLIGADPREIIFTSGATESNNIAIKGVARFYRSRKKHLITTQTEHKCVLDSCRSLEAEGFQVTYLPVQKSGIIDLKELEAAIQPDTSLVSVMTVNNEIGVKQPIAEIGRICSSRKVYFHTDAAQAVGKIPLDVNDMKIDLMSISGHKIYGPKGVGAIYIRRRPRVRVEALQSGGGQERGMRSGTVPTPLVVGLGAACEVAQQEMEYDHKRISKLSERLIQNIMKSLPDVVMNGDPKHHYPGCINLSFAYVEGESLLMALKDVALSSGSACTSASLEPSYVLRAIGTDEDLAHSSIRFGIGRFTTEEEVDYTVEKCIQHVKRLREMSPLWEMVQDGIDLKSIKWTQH
T1 sequence (Q9HD34 whole entry, chain 2 of 3): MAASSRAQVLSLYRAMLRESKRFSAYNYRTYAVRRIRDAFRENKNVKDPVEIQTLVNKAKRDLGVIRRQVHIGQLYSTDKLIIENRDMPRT
T1 sequence (P0A6A8 whole entry, chain 3 of 3): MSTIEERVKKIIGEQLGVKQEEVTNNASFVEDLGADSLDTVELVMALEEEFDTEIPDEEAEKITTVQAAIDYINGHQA

Row | Binder | Kd
1 | B1 | 160 nM
2 | B2 | 194 nM
3 | B3 | 218 nM
4 | B4 | 181 nM

The binders below were run against T1, NFS1-ISD11-ACP (SDA) complex (assay: BLI; biotinylated ISCU on streptavidin sensors, SDA 10 uM to 1.56 nM in solution; 25 °C; 50 mM HEPES pH 7.5, 200 mM NaCl, 5% glycerol, 2 mM TCEP, 5 mM DTT, 0.5 mg/mL BSA, with 300 uM EDTA (zinc-depleted ISCU); Kd from response vs. [NFS1], one site-specific binding fit). Settings: both partners purified.

Row | Binder | Kd
5 | B1 | 87.8 nM
6 | B2 | 97.3 nM
7 | B3 | 85.5 nM
8 | B4 | 110 nM
